# Source: patent publication US20240199757A1 (UNIVERSITY OF CHICAGO, published 2024)
# T1: human NT5E expressed on MDA-MB-231 cells (human, UniProt P21589 27-549)
# T1 construct: whole, on cells; also called NT5E-expressing MDA-MB-231 cells; CD73
# T1 sequence (looked up): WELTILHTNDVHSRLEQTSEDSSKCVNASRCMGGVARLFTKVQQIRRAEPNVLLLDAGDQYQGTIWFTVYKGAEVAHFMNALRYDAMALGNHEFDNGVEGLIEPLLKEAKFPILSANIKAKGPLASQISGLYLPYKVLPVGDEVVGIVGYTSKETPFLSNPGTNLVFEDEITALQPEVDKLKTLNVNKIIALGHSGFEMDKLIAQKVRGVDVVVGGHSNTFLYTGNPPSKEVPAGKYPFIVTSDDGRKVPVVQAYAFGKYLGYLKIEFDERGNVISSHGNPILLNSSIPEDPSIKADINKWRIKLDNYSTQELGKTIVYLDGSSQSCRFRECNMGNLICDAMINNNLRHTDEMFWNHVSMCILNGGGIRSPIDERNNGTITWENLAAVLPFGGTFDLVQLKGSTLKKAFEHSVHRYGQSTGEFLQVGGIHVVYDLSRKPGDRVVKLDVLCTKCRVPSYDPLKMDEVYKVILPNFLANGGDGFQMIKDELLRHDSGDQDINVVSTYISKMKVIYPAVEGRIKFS
# T2: Full-length human NT5E (recombinant, in-house) (human, UniProt P21589 27-549)
# T2 construct: also called hNT5E; hNT5EWT
# T2 sequence: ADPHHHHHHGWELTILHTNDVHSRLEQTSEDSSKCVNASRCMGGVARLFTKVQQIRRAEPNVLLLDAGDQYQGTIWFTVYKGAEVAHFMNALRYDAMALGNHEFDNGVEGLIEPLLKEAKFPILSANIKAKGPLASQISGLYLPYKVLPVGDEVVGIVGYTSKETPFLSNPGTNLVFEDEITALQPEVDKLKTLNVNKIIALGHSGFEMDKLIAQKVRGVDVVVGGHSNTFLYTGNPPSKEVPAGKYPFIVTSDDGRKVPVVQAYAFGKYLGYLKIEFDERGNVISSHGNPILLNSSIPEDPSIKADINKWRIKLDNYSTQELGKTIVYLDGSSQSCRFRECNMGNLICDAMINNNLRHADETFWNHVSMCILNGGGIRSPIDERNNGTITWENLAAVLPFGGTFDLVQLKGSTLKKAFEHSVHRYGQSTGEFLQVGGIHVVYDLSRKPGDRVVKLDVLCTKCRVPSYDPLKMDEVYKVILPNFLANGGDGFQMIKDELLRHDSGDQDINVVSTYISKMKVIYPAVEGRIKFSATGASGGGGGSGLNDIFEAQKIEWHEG
# T3: murine NT5E expressed on 4T1 cells (murine, UniProt Q61503 29-551)
# T3 construct: whole, on cells; also called mouse NT5E-expressing 4T1 cells
# T3 sequence (looked up): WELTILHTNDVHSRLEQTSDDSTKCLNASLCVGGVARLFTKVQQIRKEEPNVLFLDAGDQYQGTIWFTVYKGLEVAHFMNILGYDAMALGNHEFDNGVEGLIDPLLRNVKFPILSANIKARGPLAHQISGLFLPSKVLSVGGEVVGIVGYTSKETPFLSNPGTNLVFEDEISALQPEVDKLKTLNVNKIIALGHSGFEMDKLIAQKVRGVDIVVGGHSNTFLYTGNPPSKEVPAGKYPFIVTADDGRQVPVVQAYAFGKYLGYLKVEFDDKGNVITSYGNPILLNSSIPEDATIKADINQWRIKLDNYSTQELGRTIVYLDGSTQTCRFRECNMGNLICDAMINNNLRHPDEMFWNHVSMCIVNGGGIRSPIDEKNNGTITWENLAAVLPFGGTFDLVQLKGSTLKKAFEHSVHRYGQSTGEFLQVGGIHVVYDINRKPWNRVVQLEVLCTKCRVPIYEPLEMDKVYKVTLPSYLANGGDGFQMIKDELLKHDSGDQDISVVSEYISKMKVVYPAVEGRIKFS
# Key:
# [1] = target: T1, human NT5E expressed on MDA-MB-231 cells; test: flow cytometry on MDA-MB-231 cells, 1 mM ATP
# Procedure: Flow cytometry analysis of antibodies binding to human NT5E expressed on MDA-MB-231 cells in ATP-free condition (black) or in 1 mM ATP (red). Top panel: (left) 1780 Fab and (right) 1780 IgG titrations. […] Binding was measured at the indicated range of antibody concentrations and is expressed as mean±st. dev of median fluorescence intensity (MFI) of 1-2 replicates. Data were analyzed using OriginLab, and EC₅₀ values are shown next to the fitted curves.
# (§1) Human MDA-MB-231 cells and murine 4T1 cells were grown to 90% confluency, detached with 5 mM EDTA for 15 min at 37° C. and then resuspended in 37° C. lx PBS (#10010031, Gibco) supplemented with 1% FBS and 1OpM ZnCl2. Separate working buffers (WB) of PBS and 1% FBS with or without fixed nucleotide concentrations were used throughout all washing steps to maintain constant condition. In 96-well plates (#3799, Costar), 0.2×10⁶ cells were added per well. The plates were spun at 500×g for 5 min and the supernatant was removed. Anti-NT5E antibodies were diluted to the desired concentration in 100 μL WB, added to the cells and the plates were incubated for 20 min at 37° C. Plates were spun and cells were washed twice with WB then spun a second time. Cells were stained with 100 μL of secondary antibody (Alexa Fluor 647 AffiniPure Goat Anti-Human IgG, F(ab′)2 fragment specific, #109-605-006, Jackson, 1:200) dilution and plates were incubated for 20 min at 37° C. Cells were washed twice with WB then fixed on ice with WB supplemented with 0.5% PFA. Fixing solution was removed by centrifugation and cells were resuspended in cold 1× PBS. Samples were analyzed by flow cytometry using CytoFLEX (Beckman Coulter) and mean fluorescence intensity (MFI) data was extracted using FlowJo software. Resulting binding data was plotted using OriginLab.
# [2] = target: T2, Full-length human NT5E (recombinant, …); test: DSF thermal shift, 1.5-fold molar excess of Fab, no ATP (NT5E alone 49° C.)
# Procedure: Thermal stability of samples was analyzed by differential scanning fluorimetry (DSF) using a real-time PCR instrument (Bio-Rad CFX384). Protein samples were mixed with 4× Sypro Orange at a final 4 μM concentration. For target/Fab complexes, 1.5-fold molar excess of Fab was used. All reactions were performed in triplicates in a 384-well plate. Thermal melting curves were monitored from 25° C. to 95° C. in steps of 0.5° C./30 s. Wavelengths of 490 and 575 nm were used for excitation and emission, respectively. The melting temperatures were inferred from the first derivative of the melting curves from the mean of triplicate runs using CFX software provided by the manufacturer.
# TABLE 6 Summary of TM for hNT5EWT hNT5EDF, and hNT5E by differential scanning fluorimetry. […] Melting temperatures (TM) are for NT5E only and are represented by the mean of three replicates.
# [3] = target: T3, murine NT5E expressed on 4T1 cells; test: flow cytometry on 4T1 cells, 1 mM ATP
# Procedure: as §1
# [4] = target: T3, murine NT5E expressed on 4T1 cells; test: flow cytometry on 4T1 cells, 1 mM ATP; +ATP (1 mM), 4T1 cells
# Procedure: as §1
Binder,EC50 [1] [nM],TM of NT5E in the presence of the Fab [2] [° C.],EC50 [3] [nM],EC50 [4] [nM]
"1789 Fab (Fab, V domains shown) VH: EVQLVESGGGLVQPGGSLRLSCAASGFNVSYSSIHWVRQAPGKGLEWVASISSSSGYTYYADSVKGRFTISADTSKNTAYLQMNSLRAEDTAVYYCARNYWGWYPFYYFAFDYWGQGTLVTV VL: DIQMTQSPSSLSASVGDRVTITCRASQSVSSAVAWYQQKPGKAPKLLIYSASSLYSGVPSRFSGSRSGTDFTLTISSLQPEDFATYYCQQGWDYPITFGQGTKVEIKR",53,48,–,–
"1789 IgG (antibody, V domains shown) VH: EVQLVESGGGLVQPGGSLRLSCAASGFNVSYSSIHWVRQAPGKGLEWVASISSSSGYTYYADSVKGRFTISADTSKNTAYLQMNSLRAEDTAVYYCARNYWGWYPFYYFAFDYWGQGTLVTVSS VL: DIQMTQSPSSLSASVGDRVTITCRASQSVSSAVAWYQQKPGKAPKLLIYSASSLYSGVPSRFSGSRSGTDFTLTISSLQPEDFATYYCQQGWDYPITFGQGTKVEIKR",9.4,–,37.3,37
